We go through six molecules from patent US20250026827A1 (Alector, published 2025).

Usually Kd stands for the free concentration of one partner at which half of the binding sites on the other are occupied at equilibrium, for simple one-to-one binding. Higher therefore signals weaker binding. What is called EC50 is the concentration at which the effect is half-maximal. Low values mean an effect from little substance, high ones a need for much substance.

Changes are numbered by the printed parent chain.

To fix the notation:
T1: mouse SIRPα D1-Fc (mouse, UniProt P97797 32-150, limits assumed)
T1 construct: domain: D1
T1 sequence (looked up): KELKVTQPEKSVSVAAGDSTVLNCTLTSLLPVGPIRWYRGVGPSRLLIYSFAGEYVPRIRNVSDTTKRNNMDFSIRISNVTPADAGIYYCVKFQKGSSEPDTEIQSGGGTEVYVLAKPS

T2: mouse SIRPβ1 on CHO cells (mouse)
T2 construct: Whole entry
T2 chain: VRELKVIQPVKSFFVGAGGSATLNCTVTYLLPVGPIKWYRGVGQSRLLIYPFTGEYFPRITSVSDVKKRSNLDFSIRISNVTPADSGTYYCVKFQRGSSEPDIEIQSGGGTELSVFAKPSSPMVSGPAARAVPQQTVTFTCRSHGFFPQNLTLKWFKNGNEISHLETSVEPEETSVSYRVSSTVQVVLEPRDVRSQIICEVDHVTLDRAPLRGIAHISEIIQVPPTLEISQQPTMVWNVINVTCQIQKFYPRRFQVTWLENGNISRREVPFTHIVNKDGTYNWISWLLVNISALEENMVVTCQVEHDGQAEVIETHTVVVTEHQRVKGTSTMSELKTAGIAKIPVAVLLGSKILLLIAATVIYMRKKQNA

T3: mouse SIRPα on cells (mouse, UniProt P97797 32-513)
T3 construct: whole, on cells
T3 sequence (looked up): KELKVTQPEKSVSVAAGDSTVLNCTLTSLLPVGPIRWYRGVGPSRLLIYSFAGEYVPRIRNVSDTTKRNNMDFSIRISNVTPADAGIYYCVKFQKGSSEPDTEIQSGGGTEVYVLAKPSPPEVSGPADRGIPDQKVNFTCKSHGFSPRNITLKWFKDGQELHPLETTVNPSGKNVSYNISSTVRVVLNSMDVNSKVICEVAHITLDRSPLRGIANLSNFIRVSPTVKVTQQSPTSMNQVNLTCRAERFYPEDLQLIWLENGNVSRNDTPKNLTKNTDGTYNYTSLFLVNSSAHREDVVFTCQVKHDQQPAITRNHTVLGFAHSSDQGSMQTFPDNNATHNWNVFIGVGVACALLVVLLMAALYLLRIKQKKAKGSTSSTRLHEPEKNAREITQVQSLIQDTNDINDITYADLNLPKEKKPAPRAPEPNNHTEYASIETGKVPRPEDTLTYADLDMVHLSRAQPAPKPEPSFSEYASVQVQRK

B1: SB-4 (antibody, V domains shown)
VH: QVQLVQSGAEVKKPGASVKVSCKASGYTFTSYGISWVRQAPGQGLEWMGWISAYNGNTNYAQKLQGRVTMTTDTSTSTAYMELRSLRSDDTAVYYCARSGTHFGTYSYSNWFDPWGQGTLVTVSS
VL: EIVLTQSPGTLSLSPGERATLSCRASQSVSSSYLAWYQQKPGQAPRLLIYGASSRATGIPDRFSGSGSGTDFTLTISRLEPEDFAVYYCQQYADAPITFGGGTKVEIK
notes: IgG
B2: SB-3 (antibody, V domains shown)
VH: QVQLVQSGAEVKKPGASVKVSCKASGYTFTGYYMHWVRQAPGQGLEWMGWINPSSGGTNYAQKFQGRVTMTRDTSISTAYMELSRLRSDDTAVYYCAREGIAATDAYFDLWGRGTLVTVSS
VL: EIVMTQSPATLSLSPGERATLSCRASQSVSSYLAWYQQKPGQAPRLLIYDASNRATGIPARFSGSGSGTDFTLTISSLEPEDFAVYYCQQRLFHPPTFGGGTKVEIK
notes: IgG
B3: SB-1 (antibody, V domains shown)
VH: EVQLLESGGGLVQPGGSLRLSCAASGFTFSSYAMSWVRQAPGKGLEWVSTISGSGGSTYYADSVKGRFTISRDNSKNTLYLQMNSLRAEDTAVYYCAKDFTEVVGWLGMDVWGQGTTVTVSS
VL: B1 VL with L4M, Q91L, Y92L, A93G, D94S, A95S, I97R
notes: IgG; also called SB-1 (p)
B4: SB-2 (antibody, V domains shown)
VH: QVQLVESGGGVVQPGRSLRLSCAASGFTFSSYGMNWVRQAPGKGLEWVAVIWYDGSNKYYADSVKGRFTISRDNSKNTLYLQMNSLRAEDTAVYYCARDQTAAAAIWGMDVWGQGTTVTVSS
VL: B1 VL with Y92S, A93S, D94S, A95H, I97F
notes: IgG; also called SB-2 (p)
B5: SB-8-13 (antibody, V domains shown)
VH: QVQLQESGPGLVKPSETLSLTCAVSGYSISAHYYWGWIRQPPGKGLEWIGSIFHSGHTYYNPSLKSRVTISVDTSKNQFSLKLSSVTAADTAVYYCARGGAMTPAGMDVWGQGTTVTVSS
VL: B1 VL with L4M, S54N, Y92V, A93Y, D94S, A95S, I97Y
notes: IgG
B6: SB-2-8 (antibody, V domains shown)
VH: QVQLVESGGGVVQPGRSLRLSCAASGFTFLDYGMHWVRQAPGKGLEWVSAISAFAGSTYADSVKGRFTISRDNSKNTLYLQMNSLRAEDTAVYYCARDQTAAAAIWGMDVWGQGTTVTVSS
VL: B1 VL with I2V, Y92S, A93S, D94S, A95H, I97F
notes: IgG

T9 sequence (Q5TFQ8 30-371 limits assumed, one chain of several): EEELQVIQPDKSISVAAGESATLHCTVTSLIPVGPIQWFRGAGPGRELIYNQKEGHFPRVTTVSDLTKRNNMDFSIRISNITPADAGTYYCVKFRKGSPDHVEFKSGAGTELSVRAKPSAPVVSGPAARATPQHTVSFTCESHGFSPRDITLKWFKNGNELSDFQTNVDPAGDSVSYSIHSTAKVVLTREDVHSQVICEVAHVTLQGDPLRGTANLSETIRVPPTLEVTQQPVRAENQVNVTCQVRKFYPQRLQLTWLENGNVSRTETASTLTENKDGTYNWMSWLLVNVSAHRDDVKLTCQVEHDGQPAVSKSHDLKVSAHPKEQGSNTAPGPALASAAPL
T8 sequence (O00241 30-371 limits assumed, one chain of several): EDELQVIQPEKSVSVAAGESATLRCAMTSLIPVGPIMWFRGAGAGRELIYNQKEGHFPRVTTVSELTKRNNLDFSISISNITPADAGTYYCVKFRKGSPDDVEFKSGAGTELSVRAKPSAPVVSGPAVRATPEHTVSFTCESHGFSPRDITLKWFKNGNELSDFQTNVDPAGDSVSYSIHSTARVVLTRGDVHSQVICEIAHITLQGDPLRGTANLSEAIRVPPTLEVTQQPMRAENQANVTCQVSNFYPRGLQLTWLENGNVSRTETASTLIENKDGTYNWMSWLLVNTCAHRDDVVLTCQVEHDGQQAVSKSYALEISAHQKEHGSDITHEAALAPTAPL
T6 sequence (O00241 30-398): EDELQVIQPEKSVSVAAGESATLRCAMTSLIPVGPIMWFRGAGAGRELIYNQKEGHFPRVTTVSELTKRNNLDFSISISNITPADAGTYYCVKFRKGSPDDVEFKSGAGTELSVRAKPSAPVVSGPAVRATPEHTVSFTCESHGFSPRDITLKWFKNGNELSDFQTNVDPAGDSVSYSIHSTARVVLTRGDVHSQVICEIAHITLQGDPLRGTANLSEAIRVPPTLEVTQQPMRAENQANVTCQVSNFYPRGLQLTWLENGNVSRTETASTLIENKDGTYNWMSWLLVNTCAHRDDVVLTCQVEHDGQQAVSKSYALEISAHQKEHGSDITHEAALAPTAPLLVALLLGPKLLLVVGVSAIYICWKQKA
T7 sequence (O00241 30-148 limits assumed): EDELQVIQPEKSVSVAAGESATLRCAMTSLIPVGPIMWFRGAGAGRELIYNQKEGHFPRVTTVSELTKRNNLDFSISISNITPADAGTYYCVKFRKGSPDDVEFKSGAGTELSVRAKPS

One assay deals with T4, human SIRPα domain 1 (D1) Fc fusion (human, UniProt P78324 32-149).
T4 construct: also called human SIRPα D1-Fc; Human SIRPα Fc; not shown: C-terminal human IgG1 Fc
Description: Octet.
B1: the binding result is on record as “no binding (tested: 100 nM)”.
For the molecule B2, the binding result is recorded as “no binding (tested: 100 nM)”.

For another assay, the target named is T1, mouse SIRPα D1-Fc. The experiment in a line: Octet. (Biolayer interferometry detects binding as a change in optical thickness at a sensor tip.)
With B3, the binding result is reported as “no binding (tested: 100 nM)”.
Same read-out and setting: the same measure for B1: “no binding (tested: 100 nM)”.
For B4, the binding result is on record as “no binding (tested: 100 nM)”.
As to B2, the binding result was “no binding (tested: 100 nM)”.

For another assay, the target named is T5, human SIRPα on cells (human, UniProt P78324 31-504).
T5 construct: Whole entry
The experiment in a line: flow cytometry.
For B3, the binding result is given as “no binding (tested: 1 ug/ml)”.
On the same count and under the same terms, the same measure for B1: “no binding (tested: 1 ug/ml)”; for B4: “no binding (tested: 1 ug/ml)”; for B2: “no binding (tested: 1 ug/ml)”.

The target in another assay is T2, mouse SIRPβ1 on CHO cells. The experiment in a line: flow cytometry.
In the case of B3, the binding result is given as “no binding (tested: 1 ug/ml)”.
Regarding B1, the binding result is listed as “no binding (tested: 1 ug/ml)”.
With B5, the binding result was “no binding (tested: 1 ug/ml)”.
With B4, the binding result is reported as “no binding (tested: 1 ug/ml)”.
On the same count and under the same terms, the same measure for B6: “no binding (tested: 1 ug/ml)”.
Regarding B2, the binding result is “no binding (tested: 1 ug/ml)”.

A further assay addresses T3, mouse SIRPα on cells. The experiment in a line: flow cytometry.
For the molecule B3, the binding result is listed as “no binding (tested: 1 ug/ml)”.
B1: the binding result is recorded as “no binding (tested: 1 ug/ml)”.
As for B4, the binding result is given as “no binding (tested: 1 ug/ml)”.
With B2, the binding result is “no binding (tested: 1 ug/ml)”.

Another assay has as its target T6, human SIRPβ1 isoform 1 on cells (human, UniProt O00241 30-398).
T6 construct: On CHO cells (low level), on BWZ/BW5147.G.1.4 cells (reporter cells co-express human DAP12) or on primary human myeloid cells; also called huSIRPβ1; BWZ-huSIRPβ1
The experiment in a line: flow cytometry. For orientation: A flow cytometer gives signals particle by particle.
For the molecule B3, the FOB turned out to be 5.7 fold over background.
The molecule B1 showed an FOB of 1.7 fold over background.
On to B4, for which the FOB came to 8.7 fold over background.
For B2, the FOB is 2.5 fold over background.

In a further assay the target is T5, human SIRPα on cells. The experiment in a line: flow cytometry. The source holds these as a separate data set.
For the molecule B3, the FOB was 2.3 fold over background.
Regarding B1, the FOB stood at 2 fold over background.
Molecule B4 returned an FOB of 3 fold over background.
The same measure, in the same setting: the same measure for B2: 1.8 fold over background.

The target in the next assay is T2, mouse SIRPβ1 on CHO cells. The experiment in a line: flow cytometry. The source holds these as a separate data set.
Regarding B3, the FOB turned out to be 1.1 fold over background.
The molecule B1 came in with an FOB of 1.2 fold over background.
As to B4, the FOB is 1.3 fold over background.
Molecule B2 yielded an FOB of 1.3 fold over background.

In a further assay the target is T3, mouse SIRPα on cells. Description: flow cytometry. This is another data set of the same source.
The molecule B3 registered an FOB of 1.4 fold over background.
B1 showed an FOB of 0.9 fold over background.
B4 returned an FOB of 1.1 fold over background.
B2 yielded an FOB of 1.3 fold over background.

In another assay the target is T6, human SIRPβ1 isoform 1 on cells. Description: flow cytometry. This is another data set of the same source.
Description: (§1) Cells were then washed twice and incubated in 100 ul FACS buffer containing 0.5 μg/ml PE-conjugated secondary antibody for 30 minutes on ice. Cells were washed twice in cold FACS buffer and acquired on a BD FACS Canto. Data analysis and calculation of mean fluorescence intensity (MFI) values or 00 positive cells was performed with FlowJo (TreeStar) software version 10.0.7.
(§2) Given the high sequence similarity between receptors of the SIRPβ family, anti-SIRPβ1 antibodies were also screened for cross-reactivity to human SIRPα.
Consider B3, for which the FOB was 2 fold over background.
Consider B5, for which the FOB was found to be 7 fold over background.
B4 registered an FOB of 2 fold over background.
Same read-out and setting: the same measure for B6: 5 fold over background.

The target in a further assay is T5, human SIRPα on cells. The experiment in a line: flow cytometry. The source holds these as a separate data set.
Description: as §1, §2
Molecule B3 returned an FOB of 1 fold over background.
The same measure, in the same setting: the same measure for B5: 1 fold over background.
In turn, B4 had an FOB of 1 fold over background.
With B6, the FOB stood at 1 fold over background.

A further assay addresses T2, mouse SIRPβ1 on CHO cells. The experiment in a line: flow cytometry. The source holds these as a separate data set.
Description: as §1, §2
As to B3, the FOB worked out at 1 fold over background.
Molecule B5 gave an FOB of 2 fold over background.
Consider B4, for which the FOB is 1 fold over background.
On the same count and under the same terms, the same measure for B6: 1 fold over background.

The next assay concerns the target T7, human SIRPβ1 domain 1 (D1) Fc fusion (human, UniProt O00241 30-148).
T7 construct: Made in HEK293/T cells with a heterologous signal peptide; also called Human SIRPβ1 D1-Fc; Human SIRPβ1-Fc; not shown: C-terminal human IgG1 Fc
Description: Octet, IgG avid.
Regarding B3, binding was put at a Kd of 0.966 nM.
On to B4, for which the Kd is 1.97 nM.

In a further assay the target is T4, human SIRPα domain 1 (D1) Fc fusion. Description: Octet, IgG avid.
Consider B3, for which the binding result is listed as “no binding (tested: 100 nM)”.
With B5, the binding result was “no binding (tested: 100 nM)”.
Regarding B4, the binding result was “no binding (tested: 100 nM)”.
For the molecule B6, the binding result is given as “no binding (tested: 100 nM)”.

Another assay has as its target T8, Soluble, human SIRPβ1-Fc isoform 1 (O00241) (human, UniProt O00241 30-371, limits assumed).
T8 construct: Whole entry named; also called human SIRPβ1 isoform 1
The experiment in a line: ELISA, antigen coated. In general terms: ELISA stands for enzyme-linked immunosorbent assay.
Description: Recombinant antigen based on the sequence of SIRPβ1 isoform 1 was used for selecting anti-SIRPβ1 antibodies from yeast library pools. To ascertain if the selected anti-SIRPβ1 antibodies cross-reacted with other isoforms of human SIRPβ1 or with cynomolgus SIRPβ1, recombinant antigens based on human SIRPβ1 isoform 3 sequence and cynomolgus SIRPβ1 isoform 1 sequence were produced by transient transfection in HEK293 cells. Purified, Fc-tagged recombinant proteins were adsorbed onto 96-well plates at 1 μg/mL overnight at 4° C. Plates were subsequently washed with PBS+0.05% Tween-20 and blocked with 1% BSA+PBS for 2 hours at room temperature. Antibodies diluted in blocking buffer at 1 μg/mL were added to wells, serially diluted, and allowed to bind antigen overnight at 4° C. The following day, the primary antibodies were removed and anti-human kappa light chain antibody conjugated to horseradish peroxidase diluted 1:10,000 in blocking buffer were added to wells and incubated for 1 hour at room temperature. Plates were washed with PBS+0.05% Tween-20 and 100 μL of TMB substrate solution was added to wells to generate a colorimetric signal proportional to amount of anti-SIRPβ1 antibody bound to antigen. Once the reaction reached an appropriate color intensity, 100 μL of Stop solution was added to quench the enzyme.
(§3) Eight anti-SIRPβ1 antibodies (four parental antibodies and four corresponding affinity matured antibodies) were selected for analysis.
The molecule B3 registered an EC50 of 0.034 nM.
Still for that read-out and setting: the same measure for B5: 0.019 nM; for B4: 0.032 nM.

A further assay concerns the target T6, human SIRPβ1 isoform 1 on cells. Description: cell-based or functional assay.
Take B3: the “viable Raji-Luc cells with neutrophils and anti-CD20” value (“viable Raji-Luc cells” for short) is about 50%.
Regarding B1, the “viable Raji-Luc cells” value was about 50%.
Take B4: the “viable Raji-Luc cells” value was about 50%.
As for B2, the “viable Raji-Luc cells” value was about 50%.

The next assay shares this target. The experiment in a line: flow cytometry titration, BWZ-huSIRPβ1 cells.
Description: (§4) In these experiments, two antibodies previously described were used as positive controls: antibody 18D5 (an anti-SIRPβ antibody that cross-reacts with SIRPα and SIRPβ) and antibody KWAR23 (an anti-SIRPβ antibody that cross-reacts with SIRPα, SIRPβ, and SIRPγ). These antibodies were recombinantly produced on a human IgG4 backbone. […] Serial dilutions of each of the anti-SIRPβ1 monoclonal antibodies and control antibodies were added to 10⁵ cells and allowed to achieve binding equilibrium at 4° C. After addition of fluorescently-labeled secondary antibody and brief washing steps, MFI values as a function of titrated antibody concentration were recorded via FACS analysis.
In Table 14 below, EC50 values assign relative affinity by adding increasing concentrations of antibody variants to cells overexpressing SIRPβ 1. Receptor bound antibodies were detected by staining cells with anti-human IgG PE secondary antibody (Southern Biotech). Curves were fit using nonlinear regression analysis with Graphpad Prism 6 software.
As for B5, the EC50 worked out at 0.199 nM.
As for B6, the EC50 came to 0.203 nM.

The next assay shares this target. The experiment in a line: cell binding titration; target not given.
As to B3, the EC50 turned out to be 0.072 nM.
B5 gave an EC50 of 0.253 nM.
Same read-out and setting: the same measure for B4: 0.235 nM; for B6: 0.174 nM.

A further assay concerns the target T9, human SIRPβ1-Fc isoform 3 (Q5TFQ8) (human, UniProt Q5TFQ8 30-371, limits assumed).
T9 construct: Whole entry named; made in HEK293 cells; also called human SIRPβ1 isoform 3
Description: ELISA on plate-coated huSirpB-Fc (Q5TFQ8.1), anti-human kappa-HRP, A450.
Description: To ascertain if the selected anti-SIRPβ1 antibodies cross-reacted with other isoforms of human SIRPβ1 or with cynomolgus SIRPβ1, recombinant antigens based on human SIRPβ1 isoform 3 sequence and cynomolgus SIRPβ1 isoform 1 sequence were produced by transient transfection in HEK293 cells. Purified, Fc-tagged recombinant proteins were adsorbed onto 96-well plates at 1 μg/mL overnight at 4° C. Plates were subsequently washed with PBS+0.05% Tween-20 and blocked with 1% BSA+PBS for 2 hours at room temperature. Antibodies diluted in blocking buffer at 1 μg/mL were added to wells, serially diluted, and allowed to bind antigen overnight at 4° C. The following day, the primary antibodies were removed and anti-human kappa light chain antibody conjugated to horseradish peroxidase diluted 1:10,000 in blocking buffer were added to wells and incubated for 1 hour at room temperature. Plates were washed with PBS+0.05% Tween-20 and 100 μL of TMB substrate solution was added to wells to generate a colorimetric signal proportional to amount of anti-SIRPβ1 antibody bound to antigen. Once the reaction reached an appropriate color intensity, 100 μL of Stop solution was added to quench the enzyme.
as §3
B3: the binding result was “no binding (tested: 1 ug/mL)”.
On the same count and under the same terms, the same measure for B5: “no binding (tested: 1 ug/mL)”; for B4: “no binding (tested: 1 ug/mL)”.

For the next assay, the target named is T10, SIRPγ on Jurkat cells (human, UniProt Q9P1W8 29-387).
T10 construct: whole, on cells
T10 sequence (Q9P1W8 29-387): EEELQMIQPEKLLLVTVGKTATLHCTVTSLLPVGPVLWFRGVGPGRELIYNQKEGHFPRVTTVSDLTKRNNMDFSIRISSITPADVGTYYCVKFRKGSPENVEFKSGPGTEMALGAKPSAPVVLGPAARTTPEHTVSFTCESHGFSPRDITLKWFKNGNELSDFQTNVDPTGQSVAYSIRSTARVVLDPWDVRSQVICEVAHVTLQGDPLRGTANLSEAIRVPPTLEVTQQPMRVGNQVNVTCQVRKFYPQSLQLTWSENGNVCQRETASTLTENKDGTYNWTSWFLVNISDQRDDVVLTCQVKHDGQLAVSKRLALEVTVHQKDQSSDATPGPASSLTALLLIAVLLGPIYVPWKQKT
Description: flow cytometry on Jurkat cells (endogenous SIRPγ), fold over isotype (MFI).
Description: (§5) To determine antigen specificity of anti-SIRPβ1 antibodies of the present disclosure, cell-based affinity measurements were performed to ascertain the apparent affinities of affinity-matured anti-SIRPβ 1 antibodies to cell surface-expressed antigen. BW5147.G.1.4 cells, an immortalized mouse T-cell line, were engineered to overexpress human SIRPβ1 (BWZ-huSIRPβ1) or human SIRPα (BWZ-huSIRPα). Jurkat cells, an immortalized human T cell line, endogenously express SIRPγ.
as §4
(§6) Receptor bound antibodies were detected by staining cells with anti-human IgG PE secondary antibody (Southern Biotech). Curves were fit using nonlinear regression analysis with Graphpad Prism 6 software.
As for B5, the binding result was “no binding (tested: Log nM about 1.8 (about 60 nM))”.
Still for that read-out and setting: the same measure for B6: “no binding (tested: Log nM about 1.8 (about 60 nM))”.

The target of the next assay is T5, human SIRPα on cells. Description: flow cytometry on BWZ cells overexpressing human SIRPα, fluorescent secondary antibody, MFI.
Description: as §5, §4, §6
As to B5, the binding result is given as “no binding (tested: Log nM about 0.8 (about 7 nM))”.
B6: the binding result was “no binding (tested: Log nM about 0.8 (about 7 nM))”.
